This is an account of results in the nanobody polyreactivity screen of Harvey et al. (2022).

The data set in a line: yeast display, Sf9 membrane polyspecificity reagent, FACS + sequencing; frameworks hold sequencing errors. The method in brief:
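Polyreactivity labels are assigned by the sorting gate from which each nanobody was recovered. The gates were low and high (top ~1%), set on anti-HA fluorescence for expression and streptavidin fluorescence for reagent binding. Before sorting, galactose-induced (36–48 hours) yeast display cells were stained for 1 hour at 4 °C with 10% biotinylated, detergent-solubilized Sf9 membrane reagent.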
“WLLLMGWYRQPPGEERELVAGINDGASTNDADSVKGRFTISRDNARNTVYLKMNSLKPGDTAVYYCAGWQPVLIWFYYWGQGTQVTVSS”: the “polyreactivity (PSR sort gate)” value is listed as “high polyreactivity”.
Under “QVQLVESGGGLVQAGGSLRLSCAASGRTFATYAMGWYRQAPGKERELVAAISSGGSTYYADSVKGRFTISRDNAKNTVYLQMNSLKPEDTAVYYCAVYVDYYGYGYWGQGTQVTVSS” stands “high polyreactivity”; under “QVQLVESGGGLVQAGGSLRLSCAASGRTFYVNALGWYRQAPGKERELVAGISFSDGSTYYADSVKGRFTISRDNAKNTVYLQMNSLKPEDTAVYYCATVGAFDIYYGYGYWGQGTQVTVSS”, “low polyreactivity”; under “QVQLVESGGGLVQAGGSLRLSCAASGRTFWTNAKGWYRQAPGKERDFFAAISWRGASTFYADSVKGRFTISRYNAKNTVYLQMNSLKPEDTAVYYCAAQSRTRSFYGKYDSWGQGTQVTVSS”, “low polyreactivity”.
The same measure for “QVQLVESGGGIVQAGGSLRLSCAASGRIFLSYAMGWYRQAPGKERELVAAISRNGGSTYYADSVKGRFTISRDNGKNTVYLPMNSLKPEDTAVYYCAAGGDYWGQGTQVTVSS”: “high polyreactivity”.
Regarding “QVQLVESGGGLVQAGGSLRLSCAASGSTFTGNSMGWYRQAPGKERELVAAISRSGGSTFYADSVKGRFTISRDNAKNTVSLQMNSLKPEDTAVYYCATRYVVDMDYWGQGTQVTVSS”, the “polyreactivity (PSR sort gate)” value was “high polyreactivity”.
On to “QVQLVESGGGLVQAGGSLRLSCAASGSTFASYAMGWSRQAPGKERELVAAIRWRGGTTYYADSVKGRFTISRDNAKNTVYLQMNSLKPEDTAVYYCNADRYYLYYYWGQGTQVTVSW”, for which the “polyreactivity (PSR sort gate)” value is “low polyreactivity”.
Under “QVQLVESGGGLVQAGGSLRLSCAASGFIFDKYAMGWYRQAPGKERELVAAINWSGDSTYYADSVKGRFTISRDNAKNTVYLQMNSLKPEDTAVYYCNARRPRFRYDYWGQGTQVTVSS” stands “high polyreactivity”; under “QVQLVESGGGLVQAGGSLRLSCAASGRIFQGYAMGWYRQAPGKERELVAAITLSGGSTYYADSVKGRFTISRDHAKNTVYLQMNSLKPEDTAVYYCNAYYPDEPSLYDYWGQVTQVTVSS”, “low polyreactivity”; under “QVQLVESGGGLVQAGGSLRLSCAASGFTFSAYTMGWYRQAPGKERELVAAINWSAANTYYADSVKGRFTISRDNAKNTVSLQMNSLKPEDTAVYYCNAEDDYTYDRSFGGYKYDYWGQGTQVTVSS”, “low polyreactivity”.
“QVQLVESGGGLDQAGGSLRLSCAASGSILVSNDMGWYRQAPGKERELVAAISWSGGSTYYADSVKGRFTISRDNAKNTVYLQMNSLKPEDTAVYYCAAGFGFLFARQELDFDYWGQGTQVTVSS”: the “polyreactivity (PSR sort gate)” value is “low polyreactivity”.
The same measure for “QVQLVESGGGLVQAGGSLRLSCAASGSTFARYAMGWYRQAPGKERELVAAITWRGGSTYYADSVKGRFTISRDNAKNTVYLQMNSLKPEDTAVYYCAADFSRRYGYWGQGTQVTVSS”: “high polyreactivity”; for “QVQLVESGGGLVQAGGSLRVSCAASGLTFDTNAMGWYRQARGKERELVAAITDSGDSTYYADSVKGRFTISRDNAKNTVYLQMNRLKPEDSAVYYCAARRSNLAWGRRRMYYWGQGTQVTVSS”: “high polyreactivity”.
Under “QVQLVESGGGLVQAGGSLRLSCAASGSIFYKYMGWYRQAPGKERELVAAITWSGGSTYYADSVKGRFTISRDNAKNTVYLQMNSLKPEDTAVYYCAARDYTRYGYGYWGQGTQVTVSS” stands “high polyreactivity”.
The same measure for “QVQLVESGGGLVQAGGSLRLSCAASGSIFFYYAMGWYRQATGKERELVAAISIAGSTNYADSVKGRFTISRDNAKNTVYLQMNSLKPEDTAVYYCAKEYRWGQSQLDYWGQGTQVTVSS”: “low polyreactivity”; for “QVQLVESGGGLVQAGGSLRISCAASGSIFGYYAMGWYRQAPGKERELVAAITRSGGSTYYADSVKGRFTISRDNAKNTVYLQMNSLKPEDTAVYYCAAYYGHLYYTFDYWGQGTQVTVSS”: “low polyreactivity”; for “QVQLVESGGCLVQARGSLRLSCASSGSTFGRNAMGWYRQAPGKERELVASISRRGGSTYYADSVKGRFTISRDNAKNTVYLQMNSLKPEDTAVYYCNRVQFSPVYRFREYDYWGQGTQVTVSS”: “high polyreactivity”.
Consider “QVQLVESGGGLVQAGGSLRLSCAASGRIFKVYAMGWYRQAPGKERELVATISRGGSTYYADSVKGRFTISRDNAKNTVYLQMNSLKPEDTAVYYCAKQRERYYWFGAWSYDYWGQGTQVTVSS”, for which the “polyreactivity (PSR sort gate)” value is “low polyreactivity”.
Consider “QVQLVESGGGLVQPGGSLRLSCAASGLTISYYAMGWYRQAPGKEREFVAAITSRGGDTYYADSVKGRFTISRDNAKNTVYLQMNSLKPEDTAVYYCAVRPRYYGTYRYYYWGQGTQVTVSS”, for which the “polyreactivity (PSR sort gate)” value is reported as “high polyreactivity”.
As to “QVQLVESGGGLVQAGGGLRLSCAASGSILPEYAMGWYRQAPGKERELVAAITTSGGSTYYADSVKGRFTISRDNAKNTVYLQMNSLKPEDTAVYYCAVEYLVYLDYTYDYWGQGTQVTVSS”, the “polyreactivity (PSR sort gate)” value is given as “low polyreactivity”.
For “QVQLVESGGGLVQAGGSLRLICAASGSTFYFYAMGWYRQAPGKERELVAVISSGGSTYYADSVKGRFTISRDNAKNTVYLQMNSLKPEDTAVYYCAAYYYYTLYYRYDYWGQGTQVNVSS”, the “polyreactivity (PSR sort gate)” value is recorded as “low polyreactivity”.
Under “QVQLVESGGGLVEAGGSLRLSCAASGSTFVIYTIGCYRQAPGTQRELVAAISSSGGITYYSDSVKGRFTISRDNAKNTVYLQMNSLKPEDTAVYYCAADSRSAYSPYYYWGQGTQVTVSS” stands “high polyreactivity”.
As to “QVHLVESGGALVQAGRSLRLSCAASGSTFTINVKGWYRQAPGKERELVAAINGGGRTNYADSVKGRFTISRDNAKNTVYLLMNSLKPEDTAVYYCAADGLSNVRQMDYWGQGTQVTVSS”, the “polyreactivity (PSR sort gate)” value is listed as “low polyreactivity”.
As to “QVQLVESGGGLVQAGGSLRLSCAASGFTFYVNAMGWYRQAPGKERELVAAITDDGDSTYYADSVKGRFTISRDNAKNTVYLQMNSLKPEDTAVYYCNTVYGPDLYGTEYDYWGQGTQVTVSS”, the “polyreactivity (PSR sort gate)” value is recorded as “low polyreactivity”.
Under “QVQLVESGGGLVQAGGSLRLSCAPSGRTIYHYAMGWYRQAPGKERELVAAITWSGGSTYYADSVKGRVTISRDNAKKTVYLQMNSLKPEDTAVYYWARYPARYGGYYDYDYWGQGTQVTVSS” stands “high polyreactivity”; under “QVQLVESGGGLVQAGVSLRLSCVPPDLPSTLNVMGWYRQAPGKERELVAAITSSGGSTRYADCVKGRFTISRDNAKNTVYLQMNSLKPEDTAVYYCAASRDKYGNRVRPFDYWGQGTQVTVSS”, “low polyreactivity”; under “QVQIVESGGLLVQAGGSLRLSCAASGFIFNPNAMGWYRQAPGKERELVAAIRWSGGSTYYADSVQGRFTISRDNEKNTVYLQMNSLKPDDTAVYYCAANPRTTRYGRGYWGQGTQVSVSS”, “high polyreactivity”.
Take “QVQLVESGGGLVQAGGSLRLSCAASGGTFHGYAMGWYRQAPGKERELVAAINWSGTSTYYADSVKGRFTISRDNAKNTVYLQMNRLKPEDTAVYYCAAAYFRGTYYYWGQGTQVTVSS”: the “polyreactivity (PSR sort gate)” value is “high polyreactivity”.
The same measure for “QVQLVESGGGLVQAGGSLRLSCAASGRIFTRNAMGWYRQAPGKERELVAAITSGGSTNYADSVKGRFTISRDNAKNTVYLQMNSLKPEDTAVYYCNAVYYPYRIWGRVRPSYGYWGQGTQVTVSS”: “high polyreactivity”; for “QVQLVESGGGLVQAGGSLRLSCAASGFTFTNNAMGWYRQAPGKERELVAAIRRSGTNTYYADSVKGRFTISRDNAKNPVYLQMNSLKPEDTAVYYCATDGYEYTDYGSSGYDYWGQGTQVTVSS”: “low polyreactivity”; for “QVQLVESGGGLVQAGGSLRLSCAASGSTFHRNAMGWYRQAPGKERELVAAITSGGSTNYADSEKGRFTISRDNAKNTVYLQMNRLKPEDTPVYYCAKDDRHYNRGWYDYWGQGTQVTVSS”: “low polyreactivity”.
Under “QVQLVESGGGLVQAGGSLRLSCAASGSIFKVNTMGWHRQAPGTERELVAAISSSDDSTYYADSVKGRFTISRDNAKNTVYLQMNSLKPEDTAVYYCAADGSSVDSGGINDEYWGQGTQVTVSS” stands “low polyreactivity”.
Under “QVQLVESGGGLVQAGGSLRLSCAASGSIFFYYAMGWYRQAPGKERELVAAINWSGVNTYYADSVKGRFTISRDNAKNTVYLQMNSLKPEDTAVYYCNAVVSLTSYGYLGYRFDYWGQGTQVTVSS” stands “low polyreactivity”; under “QVQLVESGGGLVQAGGSLRLSCAASGGTFSFNAMGWSRQAPGKERELVATISWDGGSTYYADSVKGRFTISRDNAKNTVYLQMYSLKPEDTAVYYCNKYVFDRYIYETEYDYWGQGTQVTVSS”, “high polyreactivity”.
In the case of “QVQLVESGGGLVQAGVSLRLSCAASGFIYDHNAMGWYRQAPGKERELVAAITRSGGSTYYAYSVKGRFTISRDNAKNTVYLQMNSLKQEDTAVYYCNADAYGTPEFTSYAVRYDYWGQGTQVTVSS”, the “polyreactivity (PSR sort gate)” value was “low polyreactivity”.
Under “QVQLVESGGGLVQAGGSLRLSCAASGRIFVRNAMGWYRQAPGKEREMVAAISASGGSTYYADSVKGRFTISRDNAKNTVYLLMNSLKPEDTAVYYCNAYRAYYDLAYGYWGQGTQVTVSS” stands “high polyreactivity”.
The same measure for “QVQIVESGGGLVQAGGSLRLSCAASGSIFSRYAMGWYRQAPGKERELVAAISGRGGGTYYADSVKGRFTISRDNAKNTVYLQMNSLKPEDTAVYYCAAQLGRPAYSRVSWRAYYYWGQGTQVTVSS”: “low polyreactivity”; for “QVQLVESGGGLVQAGGSLRLSCAASGFTFDKYAMGWYRQAPGKERELVAAISGSGGTTYYADSVKGRFTISRDNAKNTVYLQMNSLKPEDTAVYYCATRLYSIYSYGYWGQGTQVTVSS”: “high polyreactivity”; for “QVQLVESGGGLVQAGGSLRLSCAASGSTFNNNAMGWYRQAPGKERELVAAISYTGGSTYYADSVKGRFTISRDIAKYTVYLQMNSLKPEDSAVYYCARRQARKFYYWGQGTQVTVSS”: “high polyreactivity”.
Turning to “QVQLVESGGGLVQAGGSLRLSCAASGLTFEYNAMGWYRQAPGKERELVAAITSGDNTYYADSVKGRITISRDNAKNTVYLQMNSLKPEDTAVYYCAKYRWNWRYVSRGDSWGQGTQVTVSS”, the “polyreactivity (PSR sort gate)” value is given as “high polyreactivity”.
As to “QVQLVESGGGLVQAGGSLRLSCAASGSTFRYYTMGWYRQAPGKERELVAAITWSGGSTYYADSVKGRFTISRDNAKNTVYLQMNSLKPEDTAVYYCNARSLQWTPRAYYYWGQGTQVTVSS”, the “polyreactivity (PSR sort gate)” value is “high polyreactivity”.
